Experimental data taken from the supplement of paper PMC9170038.

Tested on: K4 kissing-loop RNA reporter
Experiment: apparent KD of K4 kissing-loop reporter; higher = weaker reporter binding
Settings: Eterna round: R107
Description: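 RNA-MaP round R107: designed RNA switches with theophylline, tryptophan, arginine or FMN aptamers are transcribed on-chip within common flanks. They are titrated with a labelled K4 kissing-loop RNA reporter in RNA-MaP buffer (100 mM Tris pH 7.5, 80 mM KCl, 4 mM MgCl2), without ligand or with the indicated ligand. Median apparent KD per design.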

[1] = input ligand: theophylline 20 uM
[2] = input ligand: tryptophan 2.4 mM
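Also: bound reporter read as fluorescence of individual clusters on recovered sequencing chips by microscopy, with normalized cluster intensities fitted with a binding model.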

Sequence: AAAUUUAAUAUAUUUAAAUAAAUAUGUGAUACCAGACAUUUAUAAGUCCCUUGGCAGCACAUUGCAGUGAUGUUGCUUAUAAUAA [JR_SSTheophyA_Sub016]
- apparent KD of K4 kissing-loop reporter (input ligand: FMN 200 uM): 72.7 nM
- apparent KD of K4 kissing-loop reporter (input ligand: arginine 13.2 mM): 80.9 nM
- apparent KD of K4 kissing-loop reporter (input ligand: none): 89.7 nM
- apparent KD of K4 kissing-loop reporter [1]: 145 nM
- apparent KD of K4 kissing-loop reporter [2]: 76.5 nM

Sequence: AAAUUUAAUAUAUUUAAUUAAUUAUGUGAUACCAGACAUUUAUAAGUCCCUUGGCAGCACAAUGCAGUGAUGUUGCAUAUAAUAA [JR_SSTheophyA_Sub012]
- apparent KD of K4 kissing-loop reporter (input ligand: FMN 200 uM): 64.3 nM
- apparent KD of K4 kissing-loop reporter (input ligand: arginine 13.2 mM): 103 nM
- apparent KD of K4 kissing-loop reporter (input ligand: none): 82.1 nM
- apparent KD of K4 kissing-loop reporter [1]: 77.5 nM
- apparent KD of K4 kissing-loop reporter [2]: 67.5 nM

Sequence: AAAUUUAUAUUAGAUACCAGUAUUUUGAAUGUUUAUUAUGACAAGAGUGAUGUUCUUGUAUGCCCUUGGCAGCUGGUAUGGGUUU [KL-XTheo-B23]
- apparent KD of K4 kissing-loop reporter (input ligand: FMN 200 uM): 116 nM
- apparent KD of K4 kissing-loop reporter (input ligand: arginine 13.2 mM): 111 nM
- apparent KD of K4 kissing-loop reporter (input ligand: none): 111 nM
- apparent KD of K4 kissing-loop reporter [1]: 113 nM
- apparent KD of K4 kissing-loop reporter [2]: 115 nM

Sequence: AAAUUUGCCACUGAUACCAGCCAGUGAUGUUGGCGGUAGUUCUAUGGUACCAUACAUUGUGGCCCUUGGCAGCAGGGCACAGAGC [Raxeisra]
- apparent KD of K4 kissing-loop reporter (input ligand: FMN 200 uM): 115 nM
- apparent KD of K4 kissing-loop reporter (input ligand: arginine 13.2 mM): 99.8 nM
- apparent KD of K4 kissing-loop reporter (input ligand: none): 92.7 nM
- apparent KD of K4 kissing-loop reporter [1]: 115 nM
- apparent KD of K4 kissing-loop reporter [2]: 113 nM

Sequence: AACACUCAACGGAGUGAUGUUCUGGAAAACCGAGGACCGGUACGGCCGCCACUCGGAAAUGAGUGAGUCCUACGAAAAGUAGGAC [Omei inspired 2]
- apparent KD of K4 kissing-loop reporter (input ligand: FMN 200 uM): 160 nM
- apparent KD of K4 kissing-loop reporter (input ligand: arginine 13.2 mM): 161 nM
- apparent KD of K4 kissing-loop reporter (input ligand: none): 150 nM
- apparent KD of K4 kissing-loop reporter [1]: 157 nM
- apparent KD of K4 kissing-loop reporter [2]: 125 nM

Sequence: AACCAGCUUACUGUAAGCUGGUUGCUGGAUACCAGCUCGGAAACGAGCCCUUGGCAGCCAGAACUUGCAGUGAUGUUGCAAGUAA [Design11]
- apparent KD of K4 kissing-loop reporter (input ligand: FMN 200 uM): 150 nM
- apparent KD of K4 kissing-loop reporter (input ligand: arginine 13.2 mM): 178 nM
- apparent KD of K4 kissing-loop reporter (input ligand: none): 157 nM
- apparent KD of K4 kissing-loop reporter [1]: 120 nM
- apparent KD of K4 kissing-loop reporter [2]: 216 nM

Sequence: AACCUGACGACGAGUGAUGUUCGAUGGGAAGGAGCGCGAAGAAAUGCAGGUAGGUCGCCCUAAGAGAGUGUAACGUCAGGAUUAU [1.)]
- apparent KD of K4 kissing-loop reporter (input ligand: FMN 200 uM): 364 nM
- apparent KD of K4 kissing-loop reporter (input ligand: arginine 13.2 mM): 303 nM
- apparent KD of K4 kissing-loop reporter (input ligand: none): 286 nM
- apparent KD of K4 kissing-loop reporter [1]: 348 nM
- apparent KD of K4 kissing-loop reporter [2]: 191 nM

Sequence: AACGCCACCGCGGAUACCAGAGCCAGUGAUGUUGGAUCUGGAAAUUCGUGGGUAAGCUGGCUCCCUUGGCAGCUGCGGUUCUUUU [Tiisaron]
- apparent KD of K4 kissing-loop reporter (input ligand: FMN 200 uM): 134 nM
- apparent KD of K4 kissing-loop reporter (input ligand: arginine 13.2 mM): 112 nM
- apparent KD of K4 kissing-loop reporter (input ligand: none): 114 nM
- apparent KD of K4 kissing-loop reporter [1]: 131 nM
- apparent KD of K4 kissing-loop reporter [2]: 109 nM
